{
  "source": "patent US6921641",
  "proteins": {"B1": {"name": "Bacillus caldotenax (Bca) UvrB protein, wild type (protein)", "chain": "VEGRFQLVAPYEPQGDQPQAIAKLVDGLRRGVKHQTLLGATGTGKTFTISNVIAQVNKPTLVIAHNKTLAGQLYSELKEFFPHNAVEYFVSYYDYYQPEAYVPQTDTYIEKDAKINDEIDKLRHSATSALFERRDVIIVASVSCIYGLGSPEEYRELVVSLRVGMEIERNALLRRLVDIQYDRNDIDFRRGTFRVRGDVVEIFPASRDEHCIRVEFFGDEIERIREVDALTGEVLGEREHVAIFPASHFVTREEKMRLAIQNIEQELEERLAELRAQGKLLEAQRLEQRTRYDLEMMREMGFCSGIENYSRHLALRPPGSTPYTLLDYFPDDFLIIVDESHVTLPQLRGMYNGDRARKQVLVDHGFRLPSALDNRPLTFEEFEQKINQIIYVSATPGPYELEHSPGVVEQIIRPTGLLDPTIDVRPTKGQIDDLIGEIRERVERNERTLVTTLTKKMAEDLTDYLKEAGIKVAYLHSEIKTLERIEIIRDLRLGKYDVLVGINLLREGLDIPEVSLVAILDADKEGFLRSERSLIQTIGRAARNANGHVIMYADTITKSMEIAIQETKRRRAIQEEYNRKHGIVPRTVKKEIRDVIRATYAAEETEMYEAKPAAAMTKQEREELIRTLEAEMKEAAKALDFERAAQLRDIIFELKAEG"}, "B2": {"name": "β-hairpin deletion mutant of the B. caldotenax UvrB protein (Δβh UvrB) (protein)", "chain": "VEGRFQLVAPYEPQGDQPQAIAKLVDGLRRGVKHQTLLGATGTGKTFTISNVIAQVNKPTLVIAHNKTLAGQLYSELKEFFPHNAVEYFVSYYDYYGAKINDEIDKLRHSATSALFERRDVIIVASVSCIYGLGSPEEYRELVVSLRVGMEIERNALLRRLVDIQYDRNDIDFRRGTFRVRGDVVEIFPASRDEHCIRVEFFGDEIERIREVDALTGEVLGEREHVAIFPASHFVTREEKMRLAIQNIEQELEERLAELRAQGKLLEAQRLEQRTRYDLEMMREMGFCSGIENYSRHLALRPPGSTPYTLLDYFPDDFLIIVDESHVTLPQLRGMYNGDRARKQVLVDHGFRLPSALDNRPLTFEEFEQKINQIIYVSATPGPYELEHSPGVVEQIIRPTGLLDPTIDVRPTKGQIDDLIGEIRERVERNERTLVTTLTKKMAEDLTDYLKEAGIKVAYLHSEIKTLERIEIIRDLRLGKYDVLVGINLLREGLDIPEVSLVAILDADKEGFLRSERSLIQTIGRAARNANGHVIMYADTITKSMEIAIQETKRRRAIQEEYNRKHGIVPRTVKKEIRDVIRATYAAEETEMYEAKPAAAMTKQEREELIRTLEAEMKEAAKALDFERAAQLRDIIFELKAEG"}, "B3": {"name": "Bacillus caldotenax (Bca) UvrA protein (protein)", "chain": "MDKIVVKGARAHNLKNIDVEIPRGKLVVLTGLSGSGKSSLAFDTIYAEGQRRYVESLSAYARQFLGQMEKPDVDAIEGLSPAISIDQKTTSRNPRSTVGTVTEIYDYLRLLFARIGRPVCPTHGIEIQSQTIEQMVDRLLAYPERTKMQILAPIVSGKKGTHAKTLEDIRKQGYVRVRIDGEMRELTEDIELEKNKKHSIDVVVDRIIIKDGIAARLADSLETALKLADGKVVVDVIGEGELLFSEKHACPYCGFSIGELEPRLFSFNSPFGACPDCDGLGAKLEVDLDLVIPNDELTLKEHAIAPWEPQSSQYYPQLLEAVCRHYGIPMDVPVRDLPKEQLDKILYGSGGEPIYFRYTNDFGQVREQYIAFEGVIPNVERRYRETSSDYIREQMEKYMAEQPCPTCQGYRLKKESLAVLVGGKHIGEVTAMSVTEALAFFDGLELTEKEAQIARLILREIRDRLGFLQNVGLDYLTLSRSAGTLSGGEAQRIRLATQIGSRLTGVLYVLDEPSIGLHQRDNDRLIATLKSMRDLGNTLIVVEHDEDTMLAADYLIDIGPGAGIHGGEVISAGTPEEVMEDPNSLTGSYLSGKKFIPLPPERRKPDGRYIEIKGAREHNLKNVSVKIPLGTFVAVTGVSGSGKSTLVNEVLYKALAQKLHRAKAKPGEHRDIRGLEHLDKVIDIDQSPIGRTPRSNPATYTGVFDDIRDVFASTNEAKVRGYKKGRFSFNVKGGRCEACHGDGIIKIEMHFLPDVYVPCEVCHGKRYNRETLEVTYKGKNIAEVLDMTVEDALDFFASIPKIKRKLETLYDVGLGYMKLGQPATTLSGGEAQRVKLAAELHRRSNGRTLYILDEPTTGLHVDDIARLLDVLHRLVDNGDTVLVIEHNLDVIKTADYIIDLGPEGGDRGGQIVAVGTPEEVAEVEESHTGRYLNPILERDRARMQAQYEAVKA"}},
  "key": {"[1]": {"molecular_target": "T1, Bacillus caldotenax (Bca) UvrA protein", "T1 chain": "B3 chain"}, "[2]": {"molecular_target": "T2, Escherichia coli UvrB protein", "T2 chain": "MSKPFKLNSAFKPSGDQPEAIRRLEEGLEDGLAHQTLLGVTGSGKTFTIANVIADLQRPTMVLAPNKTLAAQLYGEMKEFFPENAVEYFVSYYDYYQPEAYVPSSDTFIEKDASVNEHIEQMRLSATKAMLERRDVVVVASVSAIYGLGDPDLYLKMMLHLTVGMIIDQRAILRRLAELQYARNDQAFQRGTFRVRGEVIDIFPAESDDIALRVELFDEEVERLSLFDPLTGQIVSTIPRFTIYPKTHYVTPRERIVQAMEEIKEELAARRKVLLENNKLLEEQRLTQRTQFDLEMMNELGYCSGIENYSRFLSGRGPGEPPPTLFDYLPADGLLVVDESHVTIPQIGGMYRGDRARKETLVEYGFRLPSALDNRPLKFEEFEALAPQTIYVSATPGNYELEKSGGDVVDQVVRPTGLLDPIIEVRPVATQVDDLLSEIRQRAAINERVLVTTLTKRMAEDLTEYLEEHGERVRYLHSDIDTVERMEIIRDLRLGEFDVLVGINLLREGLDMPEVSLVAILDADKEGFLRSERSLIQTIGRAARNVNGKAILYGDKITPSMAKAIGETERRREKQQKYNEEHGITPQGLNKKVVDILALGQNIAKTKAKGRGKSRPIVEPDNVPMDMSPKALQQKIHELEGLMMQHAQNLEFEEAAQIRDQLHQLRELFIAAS"}},
  "data": [
    {"protein": "B1", "values": [
      {"measurement": "ATPase activity (UvrA + UvrB + UV-DNA) (mol of ATP hydrolyzed/mol of protein/min)", "setting": "[1]", "value": 22},
      {"measurement": "ATPase activity (UvrA + UvrB) (mol of ATP hydrolyzed/mol of protein/min)", "setting": "[1]", "value": 18.3}
    ]},
    {"protein": "B2", "values": [
      {"measurement": "ATPase activity (UvrA + Δβh UvrB + UV-DNA) (mol of ATP hydrolyzed/mol of protein/min)", "setting": "[1]", "value": 29},
      {"measurement": "ATPase activity (UvrA + Δβh UvrB) (mol of ATP hydrolyzed/mol of protein/min)", "setting": "[1]", "value": 19}
    ]},
    {"protein": "B3", "values": [
      {"measurement": "DNA substrate bound in the form of UvrB-DNA complex (gel mobility shift, Eco UvrB at 100 nM)", "setting": "[2]", "value": "more than 50% of the DNA substrate bound in the form of UvrB-DNA complex"},
      {"measurement": "DNA substrate bound in the form of UvrB-DNA complex (gel mobility shift, Eco UvrB at 250 nM)", "setting": "[2]", "value": "all the BPDE-containing substrate is bound as the UvrB-DNA complex"}
    ]}
  ]
}
